{"source": "the DeepSol protein solubility set"}
{"test": "soluble on expression in E. coli; label from the status in PepcDB or PDB records"}
{"sequence": "AHHHHHHGSAGVRLVGVWKQFGSFTAVKDLTLEVRDGEFLVLLGPSGCGKTTTLRMIAGLEEPTKGQIYIGDKLVADPEKGVFVPPKDRDIAMVFQSYALYPHMTVYENIAFPLKLRKVPKQEIDKRVREVAEMLGLTELLNRKPRELSGGQRQRVALGRAIVRRPQVFLMDEPLSNLDAKLRVKMRAELKKLQKQLGVTTIYVTHDQVEAMTMGDRIAVMNQGVLQQVGTPEEVYEKPANTFVAGFIGSPPMNFLDATITEDGFLDFGEFRLKLLPDQFEVLQDYVGKEVIFGIRPEDIYDALFAQVKIPGENMARGVVDIIENLGGEKIVHISIGGLIVTAKFPGESRVKEGDEIDIVFDMKKIHIFNKKTGKAIL", "soluble on expression in E. coli": "soluble"}
{"sequence": "MKIMEINVEHILDCLDQYGKGELTEEQLVKALTYDEKMFLIMHQGLLGENSDSEDDFDVQDWLEEEESFFMVVEVNENLCRQAESVLEEIGVEMPDAIEGFLNQLVEKKQFPVVINS", "soluble on expression in E. coli": "not soluble"}
{"sequence": "MKLKDCVMIKKIFALPVIEQISPVLSRRKLDELDLIVVDHPQVKASFALQGAHLLSWKPAGEEEVLWLSNNTPFKNGVAIRGGVPVCWPWFGPAAQQGLPAHGFARNLPWTLKSHHEDADGVALTFELTQSEETKKFWPHDFTLLAHFRVGKTCEIDLESHGEFETTSALHTYFNVGDIAKVSVSGLGDRFIDKVNDAKENVLTDGIQTFPDRTDRVYLNPQDCSVINDEALNRIIAVGHQHHLNVVGWNPGPALSISMGDMPDDGYKTFVCVETAYASETQKVTKEKPAHLAQSIRVAKRLEHHHHHH", "soluble on expression in E. coli": "not soluble"}
{"sequence": "MSLKTTEYVAEILNELHNSAAYISNEEADQLADHILSSHQIFTAGAGRSGLMAKSFAMRLMHMGFNAHIVGEILTPPLAEGDLVIIGSGSGETKSLIHTAAKAKSLHGIVAALTINPESSIGKQADLIIRMPGSPKDQSNGSYKTIQPMGSLFEQTLLLFYDAVILKLMEKKGLDSETMFTHHANLEEGGSHHHHHH", "soluble on expression in E. coli": "soluble"}
{"sequence": "GSHMSQVEKDNTQALIPTMNMARQLSEASAWELFAAQNLTSADNEKMWQAQGRMLTAQSLKINALLQALREQGFDTTAIEQQEQEISRSLRQQGELVGQRLQLRQQQQQLSQQIVAAADEIARLAQGQANNATTSAGATQAGIYDLIEQDQRQAAESALDRLIDIDLEYVNQMNELRLSALRVQQMVMNLGLEQIQKNAPTLEKQLNNAVKILQRRQIRIEDPGVRAQVATTLTTVSQYSDLLALYQQDSEISNHLQTLAQNNIAQFAQFSSEVSQLVDTIELRNQHGLA", "soluble on expression in E. coli": "soluble"}
{"sequence": "MSLCVFLTSEVNMGLFNFVKDAGEKLWDAVTANHDKDDQAKKVQEHLNKTGIPDTDKVNVQIADGKATVTGDGLSQEAKEKILVAVGNIAGISSVDDQVKTTTPAAESQFYTVKSGDTLSAISKQVYGNANLYNKIFEANKPMLKSPEKIYPGQVLRIPEEGHHHHHH", "soluble on expression in E. coli": "not soluble"}
{"sequence": "MAEKFIKHTGLVVPLDAANVDTDAIIPKQFLQKVTRTGFGAHLFNDWRFLDEKGQQPNPDFVLNFSQYQGASILLARENFGCGSSREHAPWALTDYGFKVVIAPSFADIFYGNSFNNQLLPVKLSDAEVDELFALVKANPGIHFDVDLEAQEVKAGEKTYRFTIDAFRRHCMMNGLDSIGLTLQHDDAIAAYEAKQPAFMR", "soluble on expression in E. coli": "not soluble"}
{"sequence": "MGSDKIHHHHHHMSHPPLIVHVIFHLGVGGLENGLVNLINHIPADRYRHAIICLKGFSEFHKRLNRDDVEIIALNKREGKDFSVYGKLYRVFRQLKPDIVHTRNLTAMEAQVVAAVAGVKARVHGEHGRDIFDLDGKNWKYNLLRKAIRPFIHHFITVSKDLENWLIDTVKVSPVKVHQIYNGVEHLRFHPGGTVPVEIFPPDFFAGRPFVVGSVGRMAAVKDFPTLVQAFLMLRNELSEIDRPLRLIIAGEGVARAECEAMLRSAGVEQFAWLPGERDDIPQLMQAMDVFVLPSLGEGISNTVLEAMASGLPVIATRVGGNTELVLEGETGRLVPSGDPVALARAISQYHQDNTAVYKHGQHARAIIEQQFSMRSMTNGYLAVYDRVLGYKSKTETIN", "soluble on expression in E. coli": "not soluble"}
{"sequence": "MATSSAASVDMEDIQTVDLMSELLRRMKCASKPDKRLVFIGPPGSGKGTQSPVIKDEFCLCHLSTGDMLRAAVAAKTPLGVKAKEAMDKGELVSDDLVVGIMDEAMNRPKCQKGFILDGFPRTVTQAEKLDEMLNRRGAQIDKVLNFAIDDSVLEERITGRWIHPSSGRSYHTKFAPPKVPGVDDLTGEPLIQRKDDNADVLRSRLDAFHKQTQPVIDYYAKKENLVNIPAEKAPEEVTKVVKKVVST", "soluble on expression in E. coli": "soluble"}
{"sequence": "MKAESSNESFIIGQRVHSLNDSRRVGTVKYVGDVEGYSGTWIGVDWDQDGDGKHNGSVNGVFYFNGRSQSSASFVRSQNLSRGITLLQALELRYRTISTKDEEDEMYVLSAGNRRVSIQLLGGDKIQDKLSRFEELTSASLSYLGVSSLGVSSDLGSILPNLKLLDLTGNLISDWEEIGALCEQLPALTTLNLSCNSLSSDIKSLPQLKNIRVLVLNNSGLSWTQVEILRRSLPGIEELHLMGNMISTITSTSSSDDQAFNSLRLLNLDDNCISDWSEVLKLSQLPCLEQLYLNKNKLSRIFQSVNGTESSEKGSDPFPSLSCLLLGANNIGDLASVDALNGFPQLVDIRLSENPISDPVRGGVPRFVLVARLTKVQVLNGSEVRAREKKDSEIRYVRMVMSKLNDKSGEIELLHPRFYELKKLHGIEDERASAENSGPKNIASGLISITLKCVGPSMGEKPHLTKKLPGSITVGKLKILSENFFKLKSIKPRLFLQEEGSPFPTALDDETATLLDVGICDGSTLLVDEES", "soluble on expression in E. coli": "soluble"}
{"sequence": "MGSDKIHHHHHHMKIDDIDAFVAVIRCQSISHAAESLDLTQPAITRRVQNFEQALGVELFDRNTKPLKPTPMGIQVYQKCLAILREMDSLRELVASDTPPSGLLRLGVPQTIGDVVLLDALKQLRGEFPDLRAQVSTGWGSHLIGKIENGELDAAAALFPAGKIFPDNIVGQSIGKMELVVVCAKGSVPKKPGKLADCYEQGWVLNPDGCGFRAGLQRTLTDQGLSMKVNLETFGTELQLGLVADGMGLGLVPRPLLERSAHREQLVVLPLKDFKPVMDLWLFYPRFLGNLQAPVEAFGALVARSLKPLSAAA", "soluble on expression in E. coli": "not soluble"}
{"sequence": "MEEHLSVMYERLRQELPKLFLQSHDYSLYSLDVEFINEILNIRTKGRTWYILSLTLCRFLAWNYFAHLRLEVLQLTRHPENWTLQARWRLVGLPVHLLFLRFYKRDKDEHYRTYDAYSTFYLNSSGLICRHRLDKLMPSHSPPTPVKKLLVGALVALGLSEPEPDLNLCSKP", "soluble on expression in E. coli": "not soluble"}
{"sequence": "MSLNLKDLIERERNCQKKKAFNCSFLDYLDIVKENPEVCKFAHKRIYDLIIKQGFHIVDKNESIKKYNFFGEDFFGIDKTLMKIVNYFYAASMEGEESKQVLYLVGPVGSGKSSIVEAIKIALEDSEPIYALENCPMREEPLHLIPNNLRRKFEKELDLKIEGDLCPVCTYRLREEFNGEIEKFPVQKIGFSIKERRGVGVVPPVDPNNQDTSVLVGSVDISKMDIYSEHDPRIFSLNGAFNVGNRGIVEFIEIFKNDIEYLHSIITATQEKLIPSPGKGSMVYYDGVIIAHSNEGEWNKFKSDPTNEAILDRIVKIEVPYCLELDEEKKIYKKILKNSNFQVHIAPHTIDVAAMFAILTRLNSSEKVDLMTKLKIYNGEEIVEKASIKKIEREELEEECRQKEGMTGVSTRFIIKAINNAICESNCSCINPIDVINSLITAVKEKDLCEEVEDKYISFLEDVVRKEYNKILYKEITKFFIESFNSQGEALFNNYLDHAEAYVNKVYLKDNITGENLDPDEEFMREIEEEIGVTENSSKGFRKDVVAYILYLIRKGEEINCNCYKPLKEAIERKLISSSREISRIINPSKIRNKAQDEKYKFIVEKLKNNGYCDTCAFYTLRYAANNFWRDEGHHHHHH", "soluble on expression in E. coli": "soluble"}
{"sequence": "GMVPMTRFDSATEVVRVGENRYAVELDPGYLIGTAMNGGYLMTVLQRSALAESDHLHAVSSSYHFHRPASSGPAEIETRVLKRGRTVTTVQTTLFQEGRTILTGTLATATLDPHAEPRYAAPQPAIPPQHQCRRVDPRQSHLPDDGFLARVDVDFSPDSYAALARERTVTTPELCGYVDLSARDGGSAKDPLAFLPLAVDALPPIVSLLVDWSWAPTVELTWHLRAIPEPGPLAFRSTCALVSDGWFDENVDLWDARGRLVAQSRQLARVGR", "soluble on expression in E. coli": "soluble"}
{"sequence": "EVQLVESGGGLVKPGGSLKLSCAASGFAFSSYDMSWVRQTPEKRLEWVAYISSGGGSTYYPDTVKGRFTISRDNAKNTLYLQMSSLKSEDTAMYYCARPDYRSYAMDYWGQGTSVTVSSAKTTAPSVYPLAPVCGDTTGSSVTLGCLVKGYFPEPVTLTWNSGSLSSGVHTFPAVLQSDLYTLSSSVTVTSSTWPSQSITCNVAHPASSTKVDKKIEPRGP", "soluble on expression in E. coli": "soluble"}
{"sequence": "MGSDKIHHHHHHGKKDKEKIIDDFKVAVVTQPLSENKVQYNMVEEMAKEYEEENKIDKDKDGQTKVKQTIKHVVLPENFTSNIDSAINKIVKLADDKEVQAIVVSTDQAGLLPALQKVKEKRPEIITISAPMGDDKNQLSQFVDVNLGVSAEERGKVLAERSKEMGAKAFIHYASTDDLKDVNIAKRLEMIKETCKNIGLPFVQVNTPNINTEEDKNKVKQFLNEDIEKQVKKYGKDINVFGVNEYMDEVILTKALELKYIVAEQSNPSPIQTYPSVMGLKISEKDAQNYDKINDMISEKAKAFGMSNRLGGYPMPMDAFLPSLAIYLATEMVKQDLTQEDVCDPDYLEAFTELRFGIGSEFTPLTEVLYNYQSVILSQLIY", "soluble on expression in E. coli": "not soluble"}
{"sequence": "LAGIAGVDRDPPGWPQHSHLLAGDPERFRHQLQRAETTNSIECFVAEWHHAGVAADMTRPWPTVVQGGAGQRRRRDVEPDRKTPVRWMSGQRLSEITWPTTDIEHSVGAAEVQRHRGAVPLGSGGDAAGKVEGGRTPQPFVQP", "soluble on expression in E. coli": "not soluble"}
{"sequence": "MSLIKLFLLKLYWAHFSTKQIHQFLMAYPNVIKEEGRKKDSYLCEWVNREENVHLLRKYYAFIKLDHNDIIKELQKLKVSYITYMDSEYPVLLKEIYQFPLLLFYKGNIKLINNMHHLAVVGARDSTSYTQQSLEFLLSNDKSKYLTIVSGLAQGADAMAHQIALKYNLPTIAVLAFGHQTHYPKSTLALRNKIEEKGLVISEYPPHTPIAKYRFPERNRIISGLSKGVLITEAKEQSGSHITIDFALEQNRNVYVLPGSMFNPMTKGNLLRIQEGAKVVLNANDIFEDYYIEGHHHHHH", "soluble on expression in E. coli": "soluble"}
{"sequence": "RLQSRILAGLLHTVVRYRRKVVRDNLTRCFPEKSLQEIRRIERRFYYNFTYQILSSFKLLTYSQAQLRRHISFENLDVLIRLRAEGHPAILLMMGHFGNWEYFSGSQAIIKDLGLQIYQIFRPLKSTSSDRLMHRIRERFGSRGIAKHDVPRELLRLVRNPIPTETP", "soluble on expression in E. coli": "not soluble"}
{"sequence": "MAYTEEQIENIKTRILTALEEVIDPELGIDIVNLGLIYEIRFDGDTGQTEIDMTLTTMGCPLADLLTDQIYDAMIEVPEVTDTEVKLVWYPAWTVEKMSRYARIALGIK", "soluble on expression in E. coli": "not soluble"}
{"sequence": "MGSDKIHHHHHHMLQAFATQYIVESLGCETEIIDYTADRFNKHYPLDLGLFRFLIDAYQEKKKKAARTKFNDATFQNNIAKRKTSYVEFIHRRLHNIKEVSGFSNLCKLGSEYDAVLIGSDQKWHPGFSFGVDSSFRFVPKSVRTISYATSLGVSEYPKSYWRTSRKAWSRIDYLSVREKTGADIISKVCDNNIHAEVVVDPTYLISCEDWKKIFPVEKKFEDKYIFCYFLGNDEESKKCARRYANLKGLKLVSVVSNESYSEIDQEYADFLMTGESPDSFVNWIRGAECVFTDSFHGTAFSIMNEKQIYVFYRKNTGVKLQRHSRIDDILSLWEIKYRLITDKHREWDSYQEQPIDYTLVTQKVQSERERSMKFLKAALTF", "soluble on expression in E. coli": "not soluble"}
